Source: patent publication US20220048967A1 (published 2022)
Where a chain is given by its changes, count along the chain named. Numbered stars: 1 amine (or outer) side, 2 acyl side, 3 side chain; on linkers, the order of the positions; unused ones are H or OH. Square brackets hold non-standard residues; d marks the D form. Side chains are listed from the residue outwards. Ends that are not written are not given here. * marks the point of attachment. C20 diacid = O=C(O)CCCCCCCCCCCCCCCCCCC(=O)*; γGlu = O=C(O)[C@H](CCC(=O)[*:2])N[*:1]; αMeL = CC(C)C[C@](C)(N)C(=O)O; Dap = NC[C@H](N)C(=O)O; AEEA = NCCOCCOCC(=O)O; Aib = CC(C)(N)C(=O)O

T1: human gastric inhibitory peptide receptor (GIPR) (human, UniProt P48546 22-466)
T1 sequence (looked up): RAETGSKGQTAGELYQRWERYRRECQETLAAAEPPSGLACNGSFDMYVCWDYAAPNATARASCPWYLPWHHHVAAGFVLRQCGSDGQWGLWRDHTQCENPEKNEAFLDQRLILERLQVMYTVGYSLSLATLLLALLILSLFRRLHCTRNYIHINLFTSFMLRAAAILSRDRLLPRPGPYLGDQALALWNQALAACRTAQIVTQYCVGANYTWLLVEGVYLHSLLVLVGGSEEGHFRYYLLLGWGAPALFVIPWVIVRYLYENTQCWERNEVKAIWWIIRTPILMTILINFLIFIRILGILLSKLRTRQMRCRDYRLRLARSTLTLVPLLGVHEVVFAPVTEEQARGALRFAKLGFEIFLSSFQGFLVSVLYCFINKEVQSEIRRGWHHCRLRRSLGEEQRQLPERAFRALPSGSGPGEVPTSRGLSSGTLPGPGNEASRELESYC

B1: Example 360 (peptide)
peptide: XXEGTFTSDYSIXLDXKAQXAFVEYLIEGGPSSGAPPPS
modifications: D-Tyr1; Aib2; αMeL13; Orn16; K17 conjugated to (2-[2-(2-Amino-ethoxy)-ethoxy]-acetyl)2-(γ-Glu)-CO-(CH2)18-CO2H; Aib20; C-terminal amide
B2: Example 361 (peptide)
peptide: B1 peptide with X16K, E24X, E28A
modifications: D-Tyr1; Aib2; αMeL13; K17 conjugated to (2-[2-(2-Amino-ethoxy)-ethoxy]-acetyl)2-(γ-Glu)-CO-(CH2)18-CO2H; Aib20; D-Glu24; C-terminal amide
B3: Example 351 (peptide)
peptide: [dY][Aib]EGTFTSDYSI[αMeL]LD[Dap]K([AEEA-AEEA-γGlu-C20 diacid])AQ[Aib]EFIEYLIAGGPSSGAPPPS-NH2
modifications: N-terminus assumed
SMILES: CC[C@H](C)[C@H](NC(=O)[C@H](CC(C)C)NC(=O)[C@H](Cc1ccc(O)cc1)NC(=O)[C@H](CCC(=O)O)NC(=O)[C@@H](NC(=O)[C@H](Cc1ccccc1)NC(=O)[C@H](CCC(=O)O)NC(=O)C(C)(C)NC(=O)[C@H](CCC(N)=O)NC(=O)[C@H](C)NC(=O)[C@H](CCCCNC(=O)COCCOCCNC(=O)COCCOCCNC(=O)CC[C@H](NC(=O)CCCCCCCCCCCCCCCCCCC(=O)O)C(=O)O)NC(=O)[C@H](CN)NC(=O)[C@H](CC(=O)O)NC(=O)[C@H](CC(C)C)NC(=O)[C@](C)(CC(C)C)NC(=O)[C@@H](NC(=O)[C@H](CO)NC(=O)[C@H](Cc1ccc(O)cc1)NC(=O)[C@H](CC(=O)O)NC(=O)[C@H](CO)NC(=O)[C@@H](NC(=O)[C@H](Cc1ccccc1)NC(=O)[C@@H](NC(=O)CNC(=O)[C@H](CCC(=O)O)NC(=O)C(C)(C)NC(=O)[C@H](N)Cc1ccc(O)cc1)[C@@H](C)O)[C@@H](C)O)[C@@H](C)CC)[C@@H](C)CC)C(=O)N[C@@H](C)C(=O)NCC(=O)NCC(=O)N1CCC[C@H]1C(=O)N[C@@H](CO)C(=O)N[C@@H](CO)C(=O)NCC(=O)N[C@@H](C)C(=O)N1CCC[C@H]1C(=O)N1CCC[C@H]1C(=O)N1CCC[C@H]1C(=O)N[C@@H](CO)C(N)=O
B4: Example 363 (peptide)
peptide: B1 peptide with V23I, E24X, E28A
modifications: D-Tyr1, Aib2, αMeL13, Orn16, K17 conjugated to (2-[2-(2-Amino-ethoxy)-ethoxy]-acetyl)2-(γ-Glu)-CO-(CH2)16-CO2H, Aib20, D-Glu24, C-terminal amide (NH2)
B5: Example 353 (peptide)
peptide: B1 peptide with X16K, A21E, V23I, E24X
modifications: D-Tyr1, Aib2, αMeL13, K17 conjugated to (2-[2-(2-Amino-ethoxy)-ethoxy]-acetyl)2-(γ-Glu)-CO-(CH2)18-CO2H, Aib20, D-Glu24, C-terminal amide (NH2)
B6: Example 375 (peptide)
peptide: B1 peptide with A21E, V23I, Y25X, E28A
modifications: D-Tyr1, Aib2, αMeL13, Orn16, K17 conjugated to (2-[2-(2-Amino-ethoxy)-ethoxy]-acetyl)2-(γ-Glu)-CO-(CH2)16-CO2H, Aib20, αMeY25, C-terminal amide (NH2)
B7: Example 380 (peptide)
peptide: B1 peptide with A21E, V23I, Y25X
modifications: D-Tyr1, Aib2, αMeL13, Orn16, K17 conjugated to (2-[2-(2-Amino-ethoxy)-ethoxy]-acetyl)2-(γ-Glu)-CO-(CH2)18-CO2H, Aib20, αMeY25, C-terminal amide (NH2)
B8: Example 354 (peptide)
peptide: B1 peptide with A21E, V23I, E24X, E28A
modifications: D-Tyr1, Aib2, αMeL13, Orn16, K17 conjugated to (2-[2-(2-Amino-ethoxy)-ethoxy]-acetyl)2-(γ-Glu)-CO-(CH2)18-CO2H, Aib20, D-Glu24, C-terminal amide (NH2)
B9: Example 358 (peptide)
peptide: B1 peptide with E28A
modifications: D-Tyr1, Aib2, αMeL13, Orn16, K17 conjugated to (2-[2-(2-Amino-ethoxy)-ethoxy]-acetyl)2-(γ-Glu)-CO-(CH2)18-CO2H, Aib20, C-terminal amide (NH2)
B10: Example 352 (peptide)
peptide: B1 peptide with X16K, V23I, E24X, E28A
modifications: D-Tyr1, Aib2, αMeL13, K17 conjugated to (2-[2-(2-Amino-ethoxy)-ethoxy]-acetyl)2-(γ-Glu)-CO-(CH2)18-CO2H, Aib20, D-Glu24, C-terminal amide (NH2)
B11: Example 291 (peptide)
peptide: B1 peptide with V23I, E24X, E28A
modifications: D-Tyr1, Aib2, αMeL13, Orn16, K17 conjugated to (2-[2-(2-Amino-ethoxy)-ethoxy]-acetyl)2-(γ-Glu)-CO-(CH2)18-CO2H, Aib20, D-Glu24, C-terminal amide (NH2)
B12: Example 293 (peptide)
peptide: B1 peptide with A21E, V23I, Y25X, E28A
modifications: D-Tyr1, Aib2, αMeL13, Orn16, K17 conjugated to (2-[2-(2-Amino-ethoxy)-ethoxy]-acetyl)2-(γ-Glu)-CO-(CH2)18-CO2H, Aib20, αMeY25, C-terminal amide (NH2)
B13: Example 359 (peptide)
peptide: B1 peptide with A21E, E28A
modifications: D-Tyr1, Aib2, αMeL13, Orn16, K17 conjugated to (2-[2-(2-Amino-ethoxy)-ethoxy]-acetyl)2-(γ-Glu)-CO-(CH2)18-CO2H, Aib20, C-terminal amide (NH2)
B14: Example 366 (peptide)
peptide: B1 peptide with V23I, Y25X, E28A
modifications: D-Tyr1, Aib2, αMeL13, Orn16, K17 conjugated to (2-[2-(2-Amino-ethoxy)-ethoxy]-acetyl)2-(γ-Glu)-CO-(CH2)18-CO2H, Aib20, αMeY25, C-terminal amide (NH2)
B15: Example 355 (peptide)
peptide: B1 peptide with A21E, V23I, E24X
modifications: D-Tyr1, Aib2, αMeL13, Orn16, K17 conjugated to (2-[2-(2-Amino-ethoxy)-ethoxy]-acetyl)2-(γ-Glu)-CO-(CH2)18-CO2H, Aib20, D-Glu24, C-terminal amide (NH2)

target: human GLP-1 receptor (GLP-1R) (human, UniProt P43220 24-463); assay: cell-based or functional assay

Compared with B1, B2 is lower in “hGLP1R cAMP EC50 ratio” value: 0.171 ratio for the first, 0.0259 ratio for the second.

Going from B1 to B2, the “hGLP1R cAMP Rel EC50” value rises from 0.145 nM to 0.955 nM (6.6-fold).

target: T1, human gastric inhibitory peptide …; assay: cell-based or functional assay

Going from B1 to B2, the “hGIPR cAMP EC50 ratio” value falls from 0.53 ratio to 0.261 ratio.

First: B1
Second: B2
The “hGIPR cAMP Rel EC50” value of the first is 2-fold lower: 0.197 nM for the first, 0.401 nM for the second.

target: human GLP-1 receptor (human, UniProt P43220 24-463); assay: cell-based or functional assay

First: B3
Second: B4
The “hGLP1R GTPgS % Top” value of the first is lower: 66.5% for the first, 69.6% for the second.

Compared with B5, B6 is higher in “hGLP1R GTPgS % Top” value: 63.1% for the first, 70.4% for the second.

Going from B7 to B8, the “hGLP1R GTPgS % Top” value falls from 66.8% to 53.3%.

Compared with B9, B10 is lower in “hGLP1R GTPgS % Top” value: 72.3% for the first, 63.5% for the second.

Compared with B11, B12 is higher in “hGLP1R GTPgS % Top” value: 65% for the first, 70.6% for the second.

First: B13
Second: B14
The “hGLP1R GTPgS % Top” value of the first is higher: 69.7% for the first, 67.6% for the second.

For B15, the “hGLP1R GTPgS % Top” value was 50.6%.

Going from B3 to B4, the “hGLP1R GTPgS Rel EC50” value rises from 0.563 nM to 0.943 nM (1.7-fold).

Going from B5 to B6, the “hGLP1R GTPgS Rel EC50” value falls from 1.96 nM to 0.419 nM (4.7-fold).

First: B7
Second: B8
The “hGLP1R GTPgS Rel EC50” value of the first is 5.1-fold lower: 0.188 nM for the first, 0.967 nM for the second.

B9 and B10 are within 1.5-fold of each other in “hGLP1R GTPgS Rel EC50” value: 0.414 nM for the first, 0.552 nM for the second.

B11 and B12 are within 1.5-fold of each other in “hGLP1R GTPgS Rel EC50” value: 0.466 nM for the first, 0.368 nM for the second.

B13 and B14 are within 1.5-fold of each other in “hGLP1R GTPgS Rel EC50” value: 0.496 nM for the first, 0.409 nM for the second.

With B15 the “hGLP1R GTPgS Rel EC50” value was 1.76 nM.

target: Pro-Link-tagged Human GLP-1R (human, UniProt P43220 24-463); assay: cell-based or functional assay

Going from B3 to B4, the “hGLP1R B-Arrestin2 % Top” value falls from 23.5% to 22.1%.

First: B5
Second: B6
The “hGLP1R B-Arrestin2 % Top” value of the first is lower: 23% for the first, 24.2% for the second.

Compared with B7, B8 is lower in “hGLP1R B-Arrestin2 % Top” value: 35% for the first, 22.7% for the second.

First: B9
Second: B10
The “hGLP1R B-Arrestin2 % Top” value of the first is higher: 21.4% for the first, 17.4% for the second.

First: B12
Second: B13
The “hGLP1R B-Arrestin2 % Top” value of the first is higher: 29.5% for the first, 28.4% for the second.

First: B14
Second: B15
The “hGLP1R B-Arrestin2 % Top” value of the first is higher: 21.2% for the first, 18.3% for the second.

Going from B3 to B4, the “hGLP1R B-Arrestin2 Rel EC50” value rises from 19.6 nM to 135 nM (6.9-fold).

Going from B5 to B6, the “hGLP1R B-Arrestin2 Rel EC50” value falls from 559 nM to 11.4 nM (49-fold).

First: B7
Second: B8
The “hGLP1R B-Arrestin2 Rel EC50” value of the first is 19-fold lower: 13.7 nM for the first, 255 nM for the second.

First: B9
Second: B10
The “hGLP1R B-Arrestin2 Rel EC50” value of the first is 2.2-fold higher: 9.38 nM for the first, 4.21 nM for the second.

Compared with B11, B12 is lower in “hGLP1R B-Arrestin2 Rel EC50” value: > 10000 nM for the first, 7.19 nM for the second.

First: B13
Second: B14
The “hGLP1R B-Arrestin2 Rel EC50” value of the first is 15-fold higher: 84.1 nM for the first, 5.57 nM for the second.

With B15 the “hGLP1R B-Arrestin2 Rel EC50” value was 363 nM.
